Holding throughout (assay): FRET or BRET; FRET-FLIM in tobacco leaf epidermal cells, transient expression; GFP fusion as donor, mRFP fusion as acceptor; a reduction of the donor's lifetime of 0.2 ns or more is taken as energy transfer
Background: Bioluminescence resonance energy transfer reports proximity on the nanometre scale.

The target in experiment [1] is CMV-3a-GFP (cauliflower mosaic virus in p-0009; cucumber mosaic virus in p-0012).
The target in experiment [2] is GFP-PMTV-TGB2 (potato mop-top virus).
For experiment [3], the target named is GFP-PVX-TGB2 (potato virus X).
Experiment [4] concerns the target TMV-30k-GFP (tobacco mosaic virus).
Experiment [5] deals with T1, GFP-RTN3 (Arabidopsis thaliana), Q9SH59.
T1 chain: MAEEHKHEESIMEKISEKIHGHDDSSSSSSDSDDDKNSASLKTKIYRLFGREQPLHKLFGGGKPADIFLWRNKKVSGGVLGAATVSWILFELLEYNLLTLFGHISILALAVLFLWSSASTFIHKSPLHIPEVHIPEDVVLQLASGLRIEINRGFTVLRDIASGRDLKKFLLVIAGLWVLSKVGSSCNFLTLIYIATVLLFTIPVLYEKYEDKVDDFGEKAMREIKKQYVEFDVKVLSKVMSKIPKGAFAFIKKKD
The conditions noted are these: remark: other sources report otherwise.

In publication PMC9644274 one finds average GFP fluorescence lifetime of the donor with the acceptor and reduction of the GFP lifetime against the donor alone (Δ) data, which are given here for 3 molecules.

B1: mRFP-RTN3 (natural protein)
chain: T1 chain
On to B1, for which the average GFP fluorescence lifetime of the donor with the acceptor in experiment [1] was determined as 2.05 ns; in experiment [2], 2.12 ns; in experiment [3] it was 2.07 ns; in experiment [4], 2.09 ns. Further, the reduction of the GFP lifetime against the donor alone (Δ) in experiment [1] stood at 0.32 ns; in experiment [2], 0.29 ns; in experiment [3], 0.32 ns; in experiment [4] it was 0.31 ns.

B2: mRFP-RTN6 (natural protein)
chain: MAEELEKSMHKEESLMEKIADKIHDHDSSSSSDSEHEKPESPSALKAKIYRLFGREKPVHKVLGGGLPADVFLWRDKKLSASVLGVATAIWVLFELVEYHFLSLVCHILIFALAALFLLSNAHAFMNKTPPKIPEIHIKEEHFLMIVSALRNELNQAFVILRSIALGRDLKKFLMVVFGLWIISVVGNWFNFLTLVYICFVVLHTVPMLYEKHEDKVDPVAEKTLKELKKHYMVFDEKVLSKLPVASLKAKLG
As to B2, the average GFP fluorescence lifetime of the donor with the acceptor in experiment [1] was found to be 2.04 ns; in experiment [2] it was 2.19 ns; in experiment [3], 2.08 ns; in experiment [4] it was 2.08 ns. In addition, the reduction of the GFP lifetime against the donor alone (Δ) in experiment [1] came out at 0.33 ns; in experiment [2] it was 0.22 ns; in experiment [3], 0.31 ns; in experiment [4], 0.32 ns.

B3: mRFP-RTN6, Q6DBN4 1-253 (natural protein)
chain: B2 chain
On to B3, for which, in experiment [5], the average GFP fluorescence lifetime of the donor with the acceptor worked out at 2.2 ns and the reduction of the GFP lifetime against the donor alone (Δ) was found to be 0.22 ns.
